The target in experiment [1] is human coronavirus NL63 N-protein LRS peptide (comprising the predicted helix) (human coronavirus NL63). The experiment is described as follows: AUC; sedimentation velocity of peptides at different concentrations, 20°C, 55,000 rpm, working buffer (10.1 mM Na2PO4, 1.8 mM KH2PO4, 2.7 mM KCl, 10 mM NaCl, pH 7.40), also with 10% TFE; c(s) distributions; monomer to oligomer (trimer).

The target in experiment [2] is murine hepatitis virus (MHV) N-protein LRS peptide (comprising the predicted helix) (murine hepatitis virus). Described as above.
Experiment [3] has as its target MERS N-protein LRS peptide (comprising the predicted helix) (MERS). The experiment is described as follows: AUC.
The target in experiment [4] is 229E-related bat coronavirus N-protein LRS peptide (comprising the predicted helix) (229E-related bat coronavirus). Description: AUC.
The target of experiment [5] is SARS-CoV N-protein LRS peptide (comprising the predicted helix) (SARS-CoV). Description: AUC.

With “human coronavirus NL63 N-protein LRS peptide (comprising the predicted helix)”, the stoichiometry N in experiment [1] is 3. For “murine hepatitis virus (MHV) N-protein LRS peptide (comprising the predicted helix)”, the stoichiometry N in experiment [2] is 3. As for “MERS N-protein LRS peptide (comprising the predicted helix)”, in experiment [3], the stoichiometry N is 3. Regarding “229E-related bat coronavirus N-protein LRS peptide (comprising the predicted helix)”, the stoichiometry N in experiment [4] is 3. As for “SARS-CoV N-protein LRS peptide (comprising the predicted helix)”, the stoichiometry N in experiment [5] is 3.

In general, stoichiometry N refers to a count of units in the complex or per binding partner.

Source of the values: article PMC10075959.
